Reference: the supplement of paper PMC10567573

B1: MAGEA6 (parent)
chain: KISGGPRISYPLLHEWALREGEE
B2: SLC35F2 (parent)
chain: SFMPLVIKVTSATSVNLGILTADL

Variants of: B1
Experiment: protein stability index of a GFP-peptide fusion (GPS, HEK-293T) (PSI 1-6); higher = more stable
Details: c terminus: native
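Note: lentivirally expressed fusions sorted by FACS into six bins by GFP to DsRed ratio, PSI derived from sequencing read proportions per bin multiplied by bin number.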

Variant | protein stability index
KISGGPRISYPLLHEWALGEGEE [R19G] | 2.67
KISGGPRISYPLLHEWALEEGEE [R19E] | 2.29
KISGGPRISYPLLHEWALLEGEE [R19L] | 3.32
KISGGPRISYPLLHESALREGEE [W16S] | 2.33
KISGGPRISYPLLHEHALREGEE [W16H] | 2.26
KISGGPRISYPLLHEFALREGEE [W16F] | 2.74
KISGGPRISYPLLHEPALREGEE [W16P] | 2.49
KISGGPRISYPLLHEYALREGEE [W16Y] | 4.84
KISGGPRISYPLLHENALREGEE [W16N] | 2.54
KISGGPRISYPLLHEWCLREGEE [A17C] | 3.28
KISGGPRISYPLLHEWNLREGEE [A17N] | 3.69
KISGGPIISYPLLHEWALREGEE [R7I] | 4.03
KISGGPPISYPLLHEWALREGEE [R7P] | 2.65
KISGGPRISYPLLHNWALREGEE [E15N] | 2.31
KISGGPRISYPLLHIWALREGEE [E15I] | 2.14
NISGGPRISYPLLHEWALREGEE [K1N] | 2.62
KISGGPRISYPLLPEWALREGEE [H14P] | 3.11
KISGGPRISYPLLVEWALREGEE [H14V] | 3.6
KISGGPRISYPFLHEWALREGEE [L12F] | 3.78
KISGGPRISYPLLHEWALREGEM [E23M] | 2.17

Variant | protein stability index
KISGGPRISYPLLHEWALREGEQ [E23Q] | 2.48
KISGGPRISYPLLHEWALREGEF [E23F] | 2.43
KISGGPRISYPLLHEWALREGEW [E23W] | 1.94
KISGGPRISYPLLHEWALREGEK [E23K] | 2.88
KISGGPRISYPLLHEWALREGEC [E23C] | 1.64
KISGGPRISYPLLHEWALREGEP [E23P] | 1.89
KISGGPRISYPLLHEWANREGEE [L18N] | 2.16
KISGGPRISYPLLHEWAWREGEE [L18W] | 2.78
KISGGPRISYPLLHEWAIREGEE [L18I] | 2.98
KISGGPRISYPLLHEWALRSGEE [E20S] | 4.57
KISGGPRISYPLLHEWALRVGEE [E20V] | 3.06
KISGGPRISYPLLHEWALRTGEE [E20T] | 2.92
KISGGPRISYPLLHEWALRWGEE [E20W] | 2.32
KISGGPRISYPLLHEWALRLGEE [E20L] | 3.74
KISGGPRISYQLLHEWALREGEE [P11Q] | 2.63
KISGGPRISYVLLHEWALREGEE [P11V] | 2.1
KISGGPRISYHLLHEWALREGEE [P11H] | 2.24
KISGGPRISYRLLHEWALREGEE [P11R] | 3.25
KISGGPRISYLLLHEWALREGEE [P11L] | 2.3
KISGGPRISHPLLHEWALREGEE [Y10H] | 2.83

Variant | protein stability index
KISWGPRISYPLLHEWALREGEE [G4W] | 2.78
KISPGPRISYPLLHEWALREGEE [G4P] | 5.66
KISIGPRISYPLLHEWALREGEE [G4I] | 3.06
KISGFPRISYPLLHEWALREGEE [G5F] | 2.74
KISGYPRISYPLLHEWALREGEE [G5Y] | 3.51
KISGGPRISYPLLHEWALREYEE [G21Y] | 2.4
KISGGPRISYPLLHEWALREKEE [G21K] | 3.31
KISGGPRISYPLLHEWALREGSE [E22S] | 2.12
KISGGPRISYPLLHEWALREGPE [E22P] | 1.85
KISGGPRISYPLLHEWALREGVE [E22V] | 1.06
KISGGPRISYPLLHEWALREGTE [E22T] | 2.36
KISGGPRISYPLLHEWALREGQE [E22Q] | 3.01
KISGGPRISYPLLHEWALREGME [E22M] | 2.19
KISGGPRISYPLLHEWALREGAE [E22A] | 2.4
KISGGPRISYPLLHEWALREGDE [E22D] | 3.35
KISGGCRISYPLLHEWALREGEE [P6C] | 2.05
KPSGGPRISYPLLHEWALREGEE [I2P] | 3.29
KIMGGPRISYPLLHEWALREGEE [S3M] | 2.63
KITGGPRISYPLLHEWALREGEE [S3T] | 1.81

Variants of: B2
Experiment: as above
Details: c terminus: a fixed tail appended

Variant | protein stability index
SFMPLVIKVTSATSVNQGILTADL [L17Q] | 3.52
SFMPLVIKVTSATSVNNGILTADL [L17N] | 2.99
SFMPLVIKVTSATSVNEGILTADL [L17E] | 2.24
SFMPLVIKVGSATSVNLGILTADL [T10G] | 3.08
SFMPLVLKVTSATSVNLGILTADL [I7L] | 3.42
SFMPLVIKVTNATSVNLGILTADL [S11N] | 4.93
STMPLVIKVTSATSVNLGILTADL [F2T] | 2.87
SQMPLVIKVTSATSVNLGILTADL [F2Q] | 3.56
SPMPLVIKVTSATSVNLGILTADL [F2P] | 2.47
SFMPLVIKVTSATSVNLGILTAYL [D23Y] | 3.03
SFMPLVIKVTSATSVNLSILTADL [G18S] | 3.19
SFMPLVIKVTSATSVNLGIQTADL [L20Q] | 3.08
SFMPLVIKVTSATSVNLGIETADL [L20E] | 2.87
SFMPLVIKVTSATSVNLGICTADL [L20C] | 2.67
SFMPLVIKVTSATSVNLGINTADL [L20N] | 1.97
SFMPLVIKVTSATWVNLGILTADL [S14W] | 2.61
SFMPLVIKVTSATSVNLGILTPDL [A22P] | 3.07
SFMPLVIKVTSATSVNLGELTADL [I19E] | 2.08
SFMMLVIKVTSATSVNLGILTADL [P4M] | 3.13

Variant | protein stability index
SFMVLVIKVTSATSVNLGILTADL [P4V] | 3.1
SFMPLVIKVTSATSVNLGILTADT [L24T] | 2.24
SFMPLVIKVTSATSVNLGILTADQ [L24Q] | 2.79
SFMPLVIKVTSATSVNLGILTADH [L24H] | 3.57
SFMPLVIKVTSATSVELGILTADL [N16E] | 2.55
SFMPTVIKVTSATSVNLGILTADL [L5T] | 3.25
SFMPGVIKVTSATSVNLGILTADL [L5G] | 1.68
SFMPMVIKVTSATSVNLGILTADL [L5M] | 2.94
SFMPVVIKVTSATSVNLGILTADL [L5V] | 2.41
SFMPSVIKVTSATSVNLGILTADL [L5S] | 1.47
SFMPDVIKVTSATSVNLGILTADL [L5D] | 1.88
SFMPPVIKVTSATSVNLGILTADL [L5P] | 2.55
SFMPLVIKVTSATSVNLGILLADL [T21L] | 2.33
SFMPLVIKVTSATSVNLGILMADL [T21M] | 2.77
SFMPLVIKVTSATSVNLGILWADL [T21W] | 2.7
SFMPLVIKVTSYTSVNLGILTADL [A12Y] | 1.73
SFMPLVIKVTSDTSVNLGILTADL [A12D] | 2.82
SFMPLVIKPTSATSVNLGILTADL [V9P] | 1.7
